This note sets out measurements from patent US9192622B2, “MicroRNA-130a,b as a tumor suppressor and sensitizing agent for chemotherapy” (University of Houston, priority 2011, dated 2015).

One series has as its system HeyA8 cells. In words: Cisplatin dose-response, MTS viability with or without miR-130b. The series is classed as cell-based, human. The following applies: 72 hours. How it is done:
FIGS. 4A-4B: Impact of miR-130b on Cisplatin Dose-Response Curves. Cisplatin treated HeyA8 cells with either miR-130b or a negative control proliferation and apoptosis assays were measured 72 hours following treatment with cisplatin at the indicated concentrations. The assays were measured using MTS (FIG. 4A) and Caspase-Glo 3/7 (FIG. 4B) assays. The IC50 (concentration needed to reach 50% viability) values are shown beside the MTA graph. To assess the impact of miR-130b on cisplatin treatment, HEYA8 cells transfected with pmiR-130b, Negative control or nothing at a density of 2500 cells/well. Cells were treated with cisplatin across a range of concentrations from 0-10 μg/mL. After 72 hours, cells were assayed for growth and apoptosis activity using MTS and Caspase 3/7 assays from Promega as described before. Each sample was normalized to the parental non treated sample. Refractory disease that results from resistance to chemotherapy is a major problem for many ovarian cancer patients. The chemotherapy drug, cisplatin, works by intercalating the genomic DNA of tumor cells causing massive DNA damage that in turn causes the cells to undergo apoptosis or programmed cell […] et al. 2003). […] Seventy-two hours following cisplatin treatment, proliferation and caspase activity were measured using the same MTS and Caspase 3/7 assays used previously.

Series [1] deals with p63/p53/p73 network genes in HeyA8 cells. In words: qPCR gene expression after p53 siRNA with and without miR-130b. The series is classed as cell-based, human. The following applies: HeyA8, siRNA to p53, 72 hrs post-transfection. An excerpt: FIGS. 6A-6B: Impact of siRNA against p53 on miR-130b-regulated patterns of gene expression. Since many of the up regulated genes that were induced by miR-130b were also downstream transcriptional targets of p53, transient, siRNA knockdown of p53 was used with and without miR-130b present in HeyA8 (FIG. 6A) and OVCAR8 (FIG. 6B) cells and used qPCR to measure our gene set again with respect to p53. The goal was to dissect the p53-dependent and independent impacts of miR-130b in the p53-wild type HeyA8.
For gene expression analysis of target genes, 75 ng of total RNA from each sample was reverse transcribed using the qScript cDNA Super mix from Quanta Biosciences (95048). All RT-qPCR was carried out with the Veriti OneStep from Applied Biosystems. All qPCR experiments used the […] and Power SYBR Green Master Mix (Applied Biosystems). 18S was used as the endogenous control for all targets.
To determine the role of p53 in miR-130b gene regulation the HEYA and OVCAR8 cell lines were co-transfected with miR-130b and p53 siRNA (IDT_HSC.RNAI.N000546.12.2, 5′-rGrGrA rUrUrU rCrArU rCrUrC rUrUrG rUrArU rArUrGr A-3′, SEQ ID NO: 27), 5′-rUrCrA rUrCrA rUrArU rArCrA rArGrA rGrArU rGrArA rArUrC rCrUrC-3′, SEQ ID NO: 28) 72 hrs post-transfection gene expression was assayed by Q-PCR as described before.
To determine which of these gene expression changes are dependent on p53 patterns of gene expression in miR-130b over-expressing HeyA8 cells were compared in the presence of a siRNA to p53 (siP53).
In general terms: Real-time PCR tracks product formation cycle by cycle.

Turning to `N.N.[Cl][Pt][Cl]` [cisplatin], the figures for the “cisplatin IC50 (concentration needed to reach 50% viability)” value in the series with HeyA8 cells (HeyA8 with miR-130b) and with HeyA8 cells (HeyA8 with negative miRNA control (NC)) were approximately 9.9 µg/mL and approximately 18.3 µg/mL, respectively.

B1: siP53: siRNA to p53 (SEQ ID NO: 27 and 28) (nucleic acid)
chain 1: RGRGRARURURURCRARURCRURCRURURGRURARURARURGR
chain 2: RURCRARURCRARURARURARCRARARGRARGRARURGRARARARURCRCRURC
modifications: listed as RNA, chemistry not fully specified
Turning to B1, in series [1], the MDM2 expression level result is “down-regulated”, the RB1 expression level result is reported as “up-regulated”, the p21 expression level entry is given as “down-regulated” and the p53 expression level entry is “down-regulated”.
